Laboratory results taken from patent US20240392013A1, “IL1RAP ANTIBODIES AND USES THEREOF” (STELEXIS THERAPEUTICS, LLC, priority 2021, published 2024).

Tests used:
[1] = test system: IL33-induced NFκB activity; assay: HEK-BlueIL33 NFκB Reporter Assay; assay type: cell-based, human; settings: nM range, read-out: IC50, inhibition of IL33-induced NFκB activity
Excerpt: HEK-Blue IL33 (Invivogen, Cat #hkb-hil33) cell line was used to monitor NFκB activity upon stimulation with IL33 cytokine. The secreted embryonic alkaline phosphatase reporter gene (SEAP) is inducible expressed under the control of IFN-β minimal promoter fused to NFκB/AP-1. HEK-BlueIL33 cells were also generated upon stable transfection with human IL1RL1 (ST2) gene. Specificity to IL33 cytokine was achieved by blockage of TNF-α and IL1 response. Cells are maintained in the presence of hygromycin (200 μg/ml), zeocin (100 μg/ml) and blasticidin (10 μg/ml).
(§1) For the functional assay, cells were plated at a density of 5×10^4 cells/well in 96-well plates. Cells were treated with each antibody at the highest concentration of 200 μg/ml followed by seven serial 1:3 dilutions and incubated for 45 minutes at 37° C./5% CO^2 in humified incubator. Cells were then stimulated with IL33 (12 μM) and incubated overnight at 37° C./5% CO2 in humified incubator. Every treatment was conducted in triplicates. Following, supernatants from each well were mixed with Quanti-Blue substrate (Invivogen, Cat #rep-qb1) according to manufacturer's recommendations and secreted SEAP was measured using spectrophotometer at 650 nm.

[2] = test system: IL36-induced downstream signaling (phospho-ERK, AKT, p38, NFκB) in HPAC, CAL33, 5637 cells; assay: IL36 signaling in solid tumor cancer cells, Western blot; assay type: cell-based; settings: IL36γ, antibody 20 μg/ml
Experimental: (§2) AML patient samples or cancer cells (AML, chronic myelogenous leukemia (CML), pancreatic, head and neck squamous cell carcinoma (HNSCC), bladder, non-small-cell lung carcinoma (NSCLC), colorectal and triple-negative breast cancer (TNBC)) were seeded in 6-well plates (5×10^5 cells/well) and incubated overnight at 37° C./5% CO2 in humified incubator. In experiments conducted in cancer cell lines, cells were washed 2× with PBS and serum-starved for 3 hours. Following, cells were treated with IL1RAP antibodies at concentration of 20 μg/ml and incubated for 1 h at 37° C./5% CO2 in humidified incubator. After 1 h, cells were treated with IL1β (Invivogen, cat: rcyec-hil1b), IL33 (Adipogen, cat: AG-40B-0160-C010) or IL36 cytokines (R@D, cat: 6836IL) at 100 ng/ml and incubated for 15 more minutes. Cells were harvested on ice after 1× wash with cold PBS and were centrifuged for 5 minutes at 5000 rpm at 4° C. Cells were then lysed with NP-40 buffer for 5 minutes on ice and centrifuged for 15 minutes at 15000 rpm at 4° C. Supernatants were collected and protein concentrations were determined by BCA (Thermofisher, Cat #PI23225). […] After 3× washes, ECL was applied (Thermofisher, Cat #32106) and proteins were detected after exposure to autoradioraphic films (Worldwide medical products, Cat #41101001) and protein intensity was quantitated using ImageJ software.

cyIL1RAP = assay: Kinetics of IL1RAP mAbs by Octet, cynomolgus IL1RAP; assay type: binding
Experimental: (§3) Antibodies were diluted in kinetics buffer (0.1% BSA, 0.02% Tween-20 and 0.05% NaN3 in PBS) and loaded onto 16 channel anti-mouse IgG Fc capture sensors (AMC, Cat #2001073; Sartorius, Göttingen, Germany). Human, huIL1RAP-His (Sino Biological, lot: MB08MA1301), and monkey, cyIL1RAP-His (Lake Pharma, NY, USA; lot:16205819371) proteins were titrated starting from the highest concentration of 100 nM and followed by 50 nM and 25 nM. Purified antibodies were loaded at 5 μg/ml in kinetics buffer. The experimental parameters selected to determine the kinetic constants were Baseline for 60 s, Loading of antibody to sensor for 180 s, Association of analyte to antibody for 120 s, Dissociation for 1200 s and Regeneration in 10 mM Glycine pH 1.7 for 4×30 s.
(§4) Regeneration cycle tracking was selected for 12 cycles. Binding to human and cynomolgus IL1RAP was measured and KD (M) kinetics were calculated. Also, the disassociation rate (Kdis) (1/s) and association rate (Kon) (1/Ms) kinetics were calculated (data not shown).

[3] = test system: IL1-induced NFκB activity; assay: HEK-BlueIL1β NFκB Reporter Assay; assay type: cell-based; settings: nM range, read-out: IC50, inhibition of IL1-induced NFκB activity
Experimental: The HEK-Blue IL1β (Invivogen, Cat #hkb-il1b) cell line was used to monitor NFκB activity upon stimulation with IL1β cytokine. In this cell line the secreted embryonic alkaline phosphatase reporter gene (SEAP) is inducibly expressed under the control of IFN-β minimal promoter fused to NFκB/AP-1. Specificity to IL1β cytokine was achieved by blockage of TNF-α response. The cells were maintained in the presence of hygromycin (200 μg/ml) and zeocin (100 μg/ml).
as §1, with “CO2” for “CO^2”, “IL1β” for “IL33”, “(Invivogen, CA USA;” for “(Invivogen,”

hIL1RAP = molecular target: T1, hIL1RAP (Homo sapiens, UniProt Q9NPH3); assay: Kinetics of IL1RAP mAbs by Octet, human IL1RAP; assay type: binding; parameters: extracellular domain His-tagged, Cat #10121-H08H; His; purchased Sino Biological lot MB08MA1301 (catalogue number not given)
T1 sequence (Q9NPH3 21-367 limits assumed): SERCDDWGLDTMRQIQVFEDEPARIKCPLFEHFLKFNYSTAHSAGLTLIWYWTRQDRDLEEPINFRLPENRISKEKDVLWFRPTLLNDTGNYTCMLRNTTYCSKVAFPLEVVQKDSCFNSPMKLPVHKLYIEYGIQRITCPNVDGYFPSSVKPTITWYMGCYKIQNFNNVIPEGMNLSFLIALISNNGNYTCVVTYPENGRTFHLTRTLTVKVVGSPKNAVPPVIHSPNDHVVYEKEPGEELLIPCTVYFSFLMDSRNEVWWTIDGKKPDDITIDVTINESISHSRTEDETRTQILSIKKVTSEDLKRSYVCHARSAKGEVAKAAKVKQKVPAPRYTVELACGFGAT
Experimental: as §3, §4

[4] = test system: IL1-induced downstream signaling (phospho-ERK, AKT, p38, NFκB) in A6L, CAL33, 5637, A549, Colo205, HCC70 cells; assay: IL1 signaling in solid tumor cancer cells, Western blot; assay type: cell-based; settings: antibody 20 μg/ml
Experimental: as §2

IC50 [1]: 1.37 nM
IC50 [3]: 0.193 nM
hIL1RAP kdis(1/s) (hIL1RAP): 0.000273 s⁻¹
hIL1RAP kon(1/Ms) (hIL1RAP): 421500 M⁻¹ s⁻¹
B1: 74804_45C18A: anti-IL1RAP mAb; VH SEQ ID NO:11, VL SEQ ID NO:27, κ light chain (antibody, V domains shown)
VH: EVQLVESGGGLVKPGGSLRLACAATGFTFSNVWMSWVRQGSGKGLEWVGRIKSKADGGTIDYAAPVKGRFTISRDDSKNTLYLQMNSLKTEDTAMYYCTTGELLGFDYWGQGTLVTVSS
VL: DIVMTQSPLSLPVTPGEPASISCRSGQSLLHSNGFNCLAWYLQKPGQSPQLLIYLGSNRASGVPDRFSGSGSGTDFTLKISRVEAEDVGVYYCMQTLQTPITFGQGTRLEIK
modifications: 74804_45C18A VH; 74804_45C18A VL
Inhibition of IL36 signaling (phosphorylation of ERK, AKT, p38 and NFκB) [2]: Inhibition of IL36 signaling in solid tumor cancer cells
cyIL1RAP kdis(1/s) (cyIL1RAP): 0.000291 s⁻¹
cyIL1RAP kon(1/Ms) (cyIL1RAP): 337500 M⁻¹ s⁻¹
Inhibition of IL1 signaling (phosphorylation of ERK, AKT, p38 and NFκB) [4]: inhibited IL1 signaling in solid tumor cancer cells
